From PMC9893541 (BMC Biology, 2023)

Assays:
Assay in all cases: SPR; BIAcore T-200; chimeric Fc-type 1 receptor coupled to a Series S Protein A chip; ligands 6.25-0.049 nM flowed at 50 uL/min, 300 s association, 1000 s dissociation; 20 mM HEPES pH 7.4, 350 mM NaCl, 0.005 % P-20, 0.5 mg/mL BSA, 3.4 mM EDTA; kinetic 1:1 fit (also a bivalent fit); apparent KD = kd/ka; average of N=2
Conditions in all cases: both partners purified
BMP2 homodimer = molecular target: T1, BMP2 homodimer (human, UniProt P12643 283-396)
T1 construct: bone morphogenetic protein 2 (BMP2), mature domain; cDNA received from Hongwen Ma; Dimer stabilised by an inter-chain disulfide bond; Cloned in pET21a; no tag is mentioned; also called homodimeric BMP2; bone morphogenetic protein 2

GDF5 homodimer = molecular target: T2, GDF5 homodimer (human, UniProt P43026 382-501)
T2 construct: Growth and Differentiation Factor 5 (GDF5), mature domain; Dimer stabilised by an inter-chain disulfide bond; also called homodimeric GDF5; Growth and Differentiation Factor 5
T2 sequence (looked up): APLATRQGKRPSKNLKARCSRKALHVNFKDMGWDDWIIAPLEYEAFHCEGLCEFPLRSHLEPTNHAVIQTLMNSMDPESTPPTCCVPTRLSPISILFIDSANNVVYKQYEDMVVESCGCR

BMP4/GDF5 heterodimer = molecular target: T3, BMP4/GDF5 heterodimer (human, UniProt P12644 293-408; P43026 382-501)
T3 construct: additional Met residue on the N-terminus of the BMP4 construct; bone morphogenetic protein 4 (BMP4), mature domain; Growth and Differentiation Factor 5 (GDF5), mature domain; Made by people from two natural mature chains; disulfide-linked dimer; also called GDF5/BMP4; copies: 1 + 1
T3 sequence 1: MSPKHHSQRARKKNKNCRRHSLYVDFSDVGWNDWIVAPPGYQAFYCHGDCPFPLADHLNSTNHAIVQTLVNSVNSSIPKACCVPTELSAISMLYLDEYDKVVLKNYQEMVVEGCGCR
T3 sequence 2: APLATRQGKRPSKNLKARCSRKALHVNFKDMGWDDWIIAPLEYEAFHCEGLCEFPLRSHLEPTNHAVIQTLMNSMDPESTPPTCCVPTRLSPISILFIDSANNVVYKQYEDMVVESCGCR

BMP4 homodimer = molecular target: T4, BMP4 homodimer (human, UniProt P12644 293-408)
T4 construct: additional Met residue on the N-terminus of the BMP4 construct; bone morphogenetic protein 4 (BMP4), mature domain; Dimer stabilised by an inter-chain disulfide bond; also called homodimeric BMP4
T4 sequence: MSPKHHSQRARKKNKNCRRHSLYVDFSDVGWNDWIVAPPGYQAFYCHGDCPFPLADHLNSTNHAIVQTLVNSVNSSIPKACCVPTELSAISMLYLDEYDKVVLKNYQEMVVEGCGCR

BMP2/GDF5 heterodimer = molecular target: T5, BMP2/GDF5 heterodimer (human, UniProt P12643 283-396; P43026 382-501)
T5 construct: bone morphogenetic protein 2 (BMP2), mature domain; Growth and Differentiation Factor 5 (GDF5), mature domain; Made by people from two natural mature chains; disulfide-linked dimer; also called GDF5/BMP2; WT heterodimer; copies: 1 + 1
T5 sequence (P12643 283-396, one chain of several): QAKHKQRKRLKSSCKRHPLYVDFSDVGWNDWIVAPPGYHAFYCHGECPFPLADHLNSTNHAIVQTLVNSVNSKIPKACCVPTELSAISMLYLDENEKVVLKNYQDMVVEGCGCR

T1 sequence (P12643 283-396): as the sequence (P12643 283-396, one chain of several) above

B1: FC-(Alk6)2 (Fc fusion, UniProt O00238 14-126, looked up)
chain: KKEDGESTAPTPRPKVLRCKCHHHCPEDSVNNICSTDGYCFTMIEEDDSGLPVVTSGCLGLEGSDFQCRDTPIPHQRRSIECCTERNECNKDLHPTLPPLKNRDFVDGPIHHR
notes: type 1 receptor Alk6 (BMPR1B) in a recombinant chimeric Fc-receptor; also called chimeric FC-receptor; source: bought: R&D (Cat# 505-PR-100)
B1 was tested, and the Kd (BMP2 homodimer) was 0.102 nM, the Kd (GDF5 homodimer) was 0.057 nM and the Kd (BMP4/GDF5 heterodimer) was 0.046 nM. It also gave a Kd (BMP4 homodimer) of 0.113 nM and a Kd (BMP2/GDF5 heterodimer) of 0.026 nM.
